Test results taken from PMC4073527.

Molecular target: LRIM1 (An. gambiae)
Experiment: non-reducing SDS-PAGE western blot

LRIM1 (natural protein)
stoichiometry N: 2
